# Test results as given in US20140242069.
# Target: GST-KRT19 fusion protein (UniProt P08727)
# UniProt P08727, sequence (P08727 whole entry, the tested form may be a part): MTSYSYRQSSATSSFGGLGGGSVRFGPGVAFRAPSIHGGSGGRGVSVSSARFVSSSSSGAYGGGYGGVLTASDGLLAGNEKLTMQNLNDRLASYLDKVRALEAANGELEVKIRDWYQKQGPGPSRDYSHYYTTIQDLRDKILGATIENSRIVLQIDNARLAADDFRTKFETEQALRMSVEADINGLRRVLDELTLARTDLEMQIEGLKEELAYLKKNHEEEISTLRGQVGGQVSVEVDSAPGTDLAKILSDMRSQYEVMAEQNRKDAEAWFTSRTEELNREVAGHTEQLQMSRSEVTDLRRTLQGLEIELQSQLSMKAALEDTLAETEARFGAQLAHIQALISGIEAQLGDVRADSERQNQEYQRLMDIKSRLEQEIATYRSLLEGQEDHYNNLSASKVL
substance,measurement,value
HA-Akt protein,"in vitro kinase assay ([gamma-32P]ATP, SDS-PAGE, autoradiography)",Akt mediated Ser35 phosphorylation of KRT
